The values that follow come from patent publication US20190270817A1.

For one assay, the target named is IL-21R-Fc (UniProt Q9HBE5). As to the kind of experiment: ForteBio Octet. Background: BLI is a label-free optical method that tracks binding on a fibre tip over time.
The target of another assay is IL-21R on Hut78 T cells (UniProt Q9HBE5). In words: cell-based or functional assay.
In assay [1] the target is human IL-21R-FLAG-His (monovalent) (human) (UniProt Q9HBE5). In words: Octet, immobilized monovalent IL-21R-his.
In assay [2] the target is cynomolgus monkey IL-21R-FLAG-His (monovalent) (cynomolgus monkey) (UniProt G7Q0S8). As to the kind of experiment: Octet, immobilized monovalent IL-21R-his.
Assay [3] concerns the target cynomolgus monkey PD-1(1-167)-FLAG-His (cynomolgus monkey). In words: Octet, fusion amine-coupled to tips.
Assay [4] concerns the target human PD-1(1-170)-FLAG-His (human) (UniProt Q15116). In words: Octet, fusion amine-coupled to tips.
The target in another assay is cynoPD1(1-167)-Flag-His (UniProt Q15116). As to the kind of experiment: Octet.
Assay [5] deals with human PD-1 on cells (human) (UniProt Q15116). As to the kind of experiment: cell-based or functional assay.
Assay [6] has as its target human PD-1(1-170)-FLAG-His (human) (UniProt Q15116). As to the kind of experiment: not stated in the table (Octet per Example 11).
Assay [7] concerns the target human IL-21R, recombinant soluble (FLAG-His or Fc, not stated which) (human) (UniProt Q9HBE5). In words: not stated in the table (Octet per Example 11).

Chain of IL-21R-Fc (Q9HBE5 20-232 limits assumed): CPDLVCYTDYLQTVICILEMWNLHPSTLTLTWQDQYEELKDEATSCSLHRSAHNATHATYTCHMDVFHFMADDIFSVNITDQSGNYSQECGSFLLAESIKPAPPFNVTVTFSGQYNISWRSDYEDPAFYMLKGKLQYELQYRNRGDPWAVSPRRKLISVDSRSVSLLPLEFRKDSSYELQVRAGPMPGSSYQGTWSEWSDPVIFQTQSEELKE
Chain of human IL-21R-FLAG-His (monovalent) (human) (Q9HBE5 20-232 limits assumed): as above
Chain of human PD-1(1-170)-FLAG-His (human) (Q15116 21-170 limits assumed): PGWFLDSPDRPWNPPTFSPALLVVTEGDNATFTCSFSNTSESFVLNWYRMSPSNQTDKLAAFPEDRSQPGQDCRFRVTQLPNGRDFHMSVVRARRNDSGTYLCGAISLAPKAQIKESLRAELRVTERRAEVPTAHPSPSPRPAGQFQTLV
Chain of IL-21R on Hut78 T cells (Q9HBE5 20-538 limits assumed): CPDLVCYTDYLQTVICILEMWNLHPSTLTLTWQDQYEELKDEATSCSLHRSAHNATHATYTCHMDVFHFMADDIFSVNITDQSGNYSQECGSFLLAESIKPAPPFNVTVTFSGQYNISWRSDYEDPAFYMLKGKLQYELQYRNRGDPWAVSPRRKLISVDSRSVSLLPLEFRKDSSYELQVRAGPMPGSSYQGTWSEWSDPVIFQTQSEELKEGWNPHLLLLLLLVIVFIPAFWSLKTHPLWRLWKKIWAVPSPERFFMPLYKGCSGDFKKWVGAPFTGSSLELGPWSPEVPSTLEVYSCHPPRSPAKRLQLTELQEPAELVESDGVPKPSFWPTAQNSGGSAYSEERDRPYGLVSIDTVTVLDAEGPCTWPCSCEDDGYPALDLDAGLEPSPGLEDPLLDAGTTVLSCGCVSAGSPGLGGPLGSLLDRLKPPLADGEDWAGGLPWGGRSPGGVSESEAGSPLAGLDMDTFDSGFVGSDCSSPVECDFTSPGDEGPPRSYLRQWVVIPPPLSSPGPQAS
Chain of cynomolgus monkey PD-1(1-167)-FLAG-His (cynomolgus monkey) (Q15116 other isoform, or with tags, fused parts or gaps): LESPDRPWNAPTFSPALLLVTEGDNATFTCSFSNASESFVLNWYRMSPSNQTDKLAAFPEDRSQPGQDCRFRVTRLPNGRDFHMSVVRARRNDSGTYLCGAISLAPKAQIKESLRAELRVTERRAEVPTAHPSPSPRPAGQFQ
Chain of human IL-21R, recombinant soluble (FLAG-His or Fc, not stated which) (human) (Q9HBE5 20-232 limits assumed): as the sequence (Q9HBE5 20-232 limits assumed) above
Chain of cynoPD1(1-167)-Flag-His (Q15116 other isoform, or with tags, fused parts or gaps): as the sequence (Q15116 other isoform, or with tags, fused parts or gaps) above
Chain of human PD-1 on cells (human) (Q15116 25-288 limits assumed): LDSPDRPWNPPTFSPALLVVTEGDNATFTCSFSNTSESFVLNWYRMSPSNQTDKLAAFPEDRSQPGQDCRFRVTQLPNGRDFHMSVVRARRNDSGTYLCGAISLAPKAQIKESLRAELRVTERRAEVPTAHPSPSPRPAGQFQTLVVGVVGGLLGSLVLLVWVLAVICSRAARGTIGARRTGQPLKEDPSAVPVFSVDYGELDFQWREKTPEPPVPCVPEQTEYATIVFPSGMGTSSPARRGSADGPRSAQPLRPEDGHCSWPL

For the substance “PD-1 mAb x IL-21 R76N (Mutant 86) (from UniProt Q9HBE4 30-162)”, the dissociation constant (Kd) with IL-21R-Fc amounted to 15.3 nM. In the assay with IL-21R-Fc, “PD-1 mAb x IL-21 Q12T (Mutant 41) (from UniProt Q9HBE4 30-162)” registered a dissociation constant Kd of less than 0.26 nM. The same measure, in the same setting: the figure for “PD-1 mAb x IL-21 K73G (Mutant 66) (from UniProt Q9HBE4 30-162)” is 0.253 nM. For “PD-1 mAb x IL-21 R5A (Mutant 100) (from UniProt Q9HBE4 30-162)”, the dissociation constant (Kd) with IL-21R-Fc amounted to 0.237 nM. Consider “PD-1 mAb x IL-21 D15V (Mutant C14) (from UniProt Q9HBE4 30-162)”, for which the Kd in the assay with IL-21R-Fc came out at 5.47 nM. As for “PD-1 mAb x IL-21 P78D (Mutant 96) (from UniProt Q9HBE4 30-162)”, the Kd with IL-21R-Fc is 1.23 nM.

On to “PD-1 mAb x IL-21 S70Y (Mutant 101) (from UniProt Q9HBE4 30-162)”, for which, in the assay with IL-21R-Fc, the Kd amounted to 0.237 nM. On the same count and under the same terms, the figure for “PD-1 mAb x IL-21 I66G (Mutant 52) (from UniProt Q9HBE4 30-162)” is 4.55 nM.

Consider “anti-PD-1 mAb fused to an IL-21 (R5Q:R76E) mutein (monomer)”, for which the pSTAT3 EC50, Hut78/PD-1 with IL-21R on Hut78 T cells was found to be 341 pM.

Regarding “PD-1 mAb x IL-21 S80G (Mutant 98) (from UniProt Q9HBE4 30-162)”, in the assay with IL-21R-Fc, the Kd stood at 0.265 nM. With “PD-1 mAb x IL-21 K75G (Mutant 75) (from UniProt Q9HBE4 30-162)”, in the assay with IL-21R-Fc, the Kd came to 0.163 nM. “PD-1 mAb x IL-21 V69D (Mutant 54) (from UniProt Q9HBE4 30-162)” gave a Kd with IL-21R-Fc of 0.0395 nM.

Take PD-1 mAb x IL-21 R76E (Mutant 79): the Kd in assay [1] and in assay [2] was greater than 10 nM throughout. For “PD-1 mAb x IL-21 D15S (Mutant C12) (from UniProt Q9HBE4 30-162)”, in the assay with IL-21R-Fc, the Kd turned out to be 6.6 nM. In the assay with IL-21R-Fc, “PD-1 mAb x IL-21 K73S (Mutant 72) (from UniProt Q9HBE4 30-162)” yielded a Kd of 0.167 nM. Consider “anti-PD-1 mAb x IL-21 R5Q:R76E homodimer fusion”, for which the Kd in [1] and in assay [2] was greater than 300 nM in each case.

“PD-1 mAb x IL-21 I16D (Mutant 44) (from UniProt Q9HBE4 30-162)” yielded an equilibrium dissociation constant (Kd) in the assay with IL-21R-Fc of 0.094 nM. “PD-1 mAb x IL-21 D15N (Mutant C10) (from UniProt Q9HBE4 30-162)” showed a Kd with IL-21R-Fc of 11 nM.

“PD-1 mAb x IL-21 S70G (Mutant 58) (from UniProt Q9HBE4 30-162)”: in the assay with IL-21R-Fc, the Kd amounted to 0.518 nM.

Turning to “PD-1 mAb x IL-21 I66P (Mutant 53) (from UniProt Q9HBE4 30-162)”, the Kd with IL-21R-Fc stood at 7.11 nM. On to “PD-1 mAb x IL-21 R9D (Mutant 22) (from UniProt Q9HBE4 30-162)”, for which, in the assay with IL-21R-Fc, the dissociation constant (Kd) is greater than 100 nM. Regarding “PD-1 mAb x IL-21 S70P (Mutant 59) (from UniProt Q9HBE4 30-162)”, the Kd with IL-21R-Fc is 10 nM. Still for that read-out and setting: to “PD-1 mAb x IL-21 K77G (Mutant 94) (from UniProt Q9HBE4 30-162)” belongs 0.658 nM. With PD-1 mAb x IL-21 R76A (Mutant 77), the Kd in [1] and in assay [2] was greater than 10 nM in each case. Substance “anti-PD-1 mAb x IL-21 R9E:R76A homodimer fusion” yielded a pSTAT3 EC50, Hut78 PD-1+ T cells (n1) in the assay with IL-21R on Hut78 T cells of 16.6 nM. This substance also came in with a pSTAT3 EC50, Hut78 PD-1- T cells (n1) in the assay with IL-21R on Hut78 T cells greater than 1 µM. The same substance had a pSTAT3 EC50, Hut78 PD-1- T cells (n2) with IL-21R on Hut78 T cells greater than 1 µM. In addition, the dissociation constant Kd in assay [1] was greater than 300 nM; in assay [2], greater than 300 nM; in assay [3], 5.9 nM; in assay [4], 8.9 nM. “PD-1 mAb x IL-21 R76Y (Mutant 92) (from UniProt Q9HBE4 30-162)” returned a Kd in the assay with IL-21R-Fc of 0.265 nM.

Turning to “PD-1 mAb x IL-21 K73D (Mutant 64) (from UniProt Q9HBE4 30-162)”, the Kd in the assay with IL-21R-Fc worked out at 0.435 nM. Take “PD-1 mAb x IL-21 Q116E (Mutant C21) (from UniProt Q9HBE4 30-162)”: the Kd in the assay with IL-21R-Fc was determined as 7.95 nM. Consider “PD-1 mAb x IL-21 K72P (Mutant 62) (from UniProt Q9HBE4 30-162)”, for which the dissociation constant (Kd) with IL-21R-Fc stood at 8.96 nM. On the same count and under the same terms, the figure for “PD-1 mAb x IL-21 R9A (Mutant 21) (from UniProt Q9HBE4 30-162)” is 6.84 nM; for “PD-1 mAb x IL-21 K73I (Mutant 68) (from UniProt Q9HBE4 30-162)” it is 0.172 nM; for “PD-1 mAb x IL-21 D15A (Mutant c6) (from UniProt Q9HBE4 30-162)” it is 0.439 nM. Nivo huIgG1 mAb returned a Kd with cynoPD1(1-167)-Flag-His of 3.5 nM. As to “anti-TIGIT mAb fused to an IL-21 (R5Q:R76E) mutein (dimer)”, the pSTAT3 EC50, Hut78/TIGIT with IL-21R on Hut78 T cells was 1390 pM. “PD-1 mAb x IL-21 S113K (Mutant C18) (from UniProt Q9HBE4 30-162)”: the Kd with IL-21R-Fc turned out to be 8.1 nM. In the assay with IL-21R-Fc, “PD-1 mAb x IL-21 K72D (Mutant 60) (from UniProt Q9HBE4 30-162)” had a Kd of 0.235 nM. “PD-1 mAb x IL-21 R9G (Mutant 24) (from UniProt Q9HBE4 30-162)”: the Kd with IL-21R-Fc is 40 nM. Substance “PD-1 mAb x IL-21 K72G (Mutant 61) (from UniProt Q9HBE4 30-162)” showed a dissociation constant (Kd) in the assay with IL-21R-Fc of 0.25 nM. “anti-PD-1 mAb x IL-21 R5E:R76A homodimer fusion” yielded a pSTAT3 EC50, Hut78 PD-1+ T cells (n1) with IL-21R on Hut78 T cells of 1.98 nM. In the assay with IL-21R on Hut78 T cells, this substance gave a pSTAT3 EC50, Hut78 PD-1+ T cells (n2) of 1.49 nM. In addition, the pSTAT3 EC50, Hut78 PD-1- T cells (n1) with IL-21R on Hut78 T cells was greater than 1 µM. The same substance showed a pSTAT3 EC50, Hut78 PD-1- T cells (n2) with IL-21R on Hut78 T cells greater than 1 µM. The dissociation constant Kd was greater than 300 nM in assay [1], greater than 300 nM in assay [2], 5.9 nM in assay [3] and 7 nM in assay [4]. “PD-1 mAb x IL-21 R76M (Mutant 85) (from UniProt Q9HBE4 30-162)” had a Kd in the assay with IL-21R-Fc of 0.6 nM. In turn, “PD-1 mAb x IL-21 K73A (Mutant 63) (from UniProt Q9HBE4 30-162)” registered an equilibrium dissociation constant (Kd) with IL-21R-Fc of 0.0525 nM. In the assay with IL-21R-Fc, “PD-1 mAb x IL-21 Q12E (Mutant 38) (from UniProt Q9HBE4 30-162)” had a dissociation constant (Kd) of 0.031 nM. Regarding “PD-1 mAb x IL-21 R9Y (Mutant 35) (from UniProt Q9HBE4 30-162)”, in the assay with IL-21R-Fc, the Kd came to 0.63 nM.

“PD1 mAb x R9E:R76A monomer (chimera, mouse IgG1 constant region, C-terminal human IL-21 R9E:R76A)” registered a Hut78 PD1 (+) Interpolated EC50 with IL-21R on Hut78 T cells of 1.97 nM. For the same substance, in the assay with IL-21R on Hut78 T cells, the Hut78 PD-1 (-) Interpolated EC50 is greater than 1000 nM. This substance also had a PD-1 reporter Interpolated EC50 in assay [5] of 1.61 nM. In addition, the results for the dissociation constant Kd in assay [6] and in assay [7] were 2.6 nM and greater than 300 nM, respectively.

In the assay with IL-21R-Fc, “PD-1 mAb x IL-21 R65P (Mutant 50) (from UniProt Q9HBE4 30-162)” yielded a Kd of 0.9 nM. “PD-1 mAb x IL-21 R76P (Mutant 87) (from UniProt Q9HBE4 30-162)”: in the assay with IL-21R-Fc, the Kd turned out to be 0.4 nM. Substance “PD-1 mAb x IL-21 I66D (Mutant 51) (from UniProt Q9HBE4 30-162)” came in with a dissociation constant Kd with IL-21R-Fc of 0.677 nM. “PD-1 mAb x IL-21 L13D (Mutant 43) (from UniProt Q9HBE4 30-162)”: the Kd with IL-21R-Fc is 11 nM. The substance “PD-1 mAb x IL-21 R11D (Mutant c1) (from UniProt Q9HBE4 30-162)” came in with a Kd in the assay with IL-21R-Fc of 0.411 nM. On to “PD-1 mAb x IL-21 R76D (Mutant 78) (from UniProt Q9HBE4 30-162)”, for which the Kd in the assay with IL-21R-Fc is 12 nM. Regarding “PD-1 mAb x IL-21 I8S (Mutant 20) (from UniProt Q9HBE4 30-162)”, the dissociation constant (Kd) in the assay with IL-21R-Fc was found to be 4 nM. The same measure, in the same setting: the figure for “PD-1 mAb x IL-21 Q12D (Mutant 37) (from UniProt Q9HBE4 30-162)” is 0.42 nM; for “PD-1 mAb x IL-21 D15M (Mutant c9) (from UniProt Q9HBE4 30-162)” it is 0.163 nM. Take “PD-1 mAb x IL-21 I14S (Mutant c5) (from UniProt Q9HBE4 30-162)”: in the assay with IL-21R-Fc, the Kd came to 0.166 nM. As to “PD-1 mAb x IL-21 Q19D (Mutant 46) (from UniProt Q9HBE4 30-162)”, in the assay with IL-21R-Fc, the Kd turned out to be 0.17 nM. Regarding “PD-1 mAb x IL-21 Q12N (Mutant 39) (from UniProt Q9HBE4 30-162)”, in the assay with IL-21R-Fc, the dissociation constant (Kd) turned out to be 0.38 nM.

The substance “PD-1 mAb x IL-21 D15E (Mutant c7) (from UniProt Q9HBE4 30-162)” showed a Kd with IL-21R-Fc of 0.249 nM.

As a reminder, the Kd is the equilibrium constant for the complex coming apart.
